This note sets out measurements from patent publication US20250270167A1.

This test deals with GHR.

On to “Jintropin (commercially available rhGH drug, Changchun GeneScience Pharmaceutical Co., Ltd.) (from UniProt P01241) (ligand)”, for which the EC50 (chemiluminescence value, ONE-Glo, HEK293-GHR cells) came to 0.0126 µg/mL.

In the case of “Polyethylene Glycol Recombinant Human Somatropin Injection (commercially available PEG-rhGH drug, Changchun GeneScience Pharmaceutical Co., Ltd.) (from UniProt P01241) (ligand)”, the EC50 (chemiluminescence value, ONE-Glo, HEK293-GHR cells) worked out at 0.0686 µg/mL and the Relative activity (%) worked out at 18%.

In turn, “rhGH standard product of National Institutes for Food and Drug Control (from UniProt P01241) (ligand)” displayed an EC50 (chemiluminescence value, ONE-Glo, HEK293-GHR cells) of 0.012 µg/mL.
